According to paper PMC11065421, “An RNA-dependent and phase-separated active subnuclear compartment safeguards repressive chromatin domains” (Molecular Cell, 2024):
Where “and” joins values, the source holds several entries; their conditions need not be identical. Equal entries are not always repeated.

Target: the molecule itself
Test: SEC; Superose 6 Increase 3.2/300; freshly purified recombinant protein concentrated up to 1 mg/ml; absorbance at 280 nm

B1: recombinant BAZ2AN (domain or fragment, UniProt Q91YE5 1-744, looked up)
chain: MEMEANDHFNFTGLPPAPAASGLKPSPSSGEGLYTNGSPMNFPQQGKSLNGDVNVNGLSTVSHTTTSGILNSAPHSSSTSHLHHPNVAYDCLWNYSQYPSANPGNNLKDPPLLSQFPGGQYPLNGILGGNRQPSSPSHNTNLRAGSQEFWANGTQSPMGLNFDSQELYDSFPDQNFEVMPNGPPSFFTSPQTSPMLGSSIQTFAPSQDVSSDIHPDEAAEKELTSVVAENGTGLVGSLELEEEQPELKMCGYNGSVSSVESLHQEVSVLVPDPTVSCLDDPSHLPDQLEDTPILSEDSLEPFDSLAAEPVSGSLYGIDDAELMGAEDKLPLEGNPVISALDCPALSNANAFSLLADDSQTSASIFVSPTSPPVLGESVLQDNSFGLNSCSDSEQEEIETQSSNFQRPLTEPAPDQPPSTQLHPAVSPTASPAASLTASAEISPAVSPVASSPVPPEVFVAVSPASSPALPAISLEASMTTPVTSPQGSPEPSPAAAFQTVSPARKNVSSAPKARADREETTGGAVAVSGSGDVLKRRIATPEEVRLPLQHGWRREVRIKKGSHRWQGETWYYGPCGKRMKQFPEVIKYLSRNVVHSVRREHFSFSPRMPVGDFFEERDTPEGLQWVQLSAEEIPSRIQAITGKRGRPRNNEKAKNKEVPKVKRGRGRPPKIKMPELLNKTDNRLPKKLETQEILSEDDKAKMTKNKKKMRQKVQRGESQTPVQGQARNKRKQDTKSLKQKDTKK
notes: BAZ2A (TIP5) N-terminal region, aa 1-744; also called BAZ2AN-Hist; source: E. coli BL21(DE3), purified (Glutathione Sepharose, PreScission cleavage, HisTrap)
stoichiometry N: 4 units and 6 units
